Publication PMC5740175

Experiments:
[1] = test system: IRP1 (iron regulatory protein 1); experiment: EMSA; settings: 25 mM Tris/HCl pH 7.4, 40 mM KCl, 1% Triton X-100, protease inhibitor (EDTA-free), 200 ng IRP1, 100 ng labeled probe, 15 min room temperature, then 50 ng …
[2] = test system: IRP1 (iron regulatory protein 1); experiment: competition EMSA; settings: 25 mM Tris/HCl pH 7.4, 40 mM KCl, 1% Triton X-100, protease inhibitor (EDTA-free); 200 ng IRP1, 100 ng labeled probe; 15 min room temperature, then 50 ng …

Work on FTL 5' IRE +39ΔC yielded a binding signal (% of WT bound) ([1]; direct, minimal binding, reduction of almost 95%, mean of 4, heparin) of 5.

FTL 5' IRE Ghent +49A>G showed a binding signal (% of WT bound) ([1]; direct, 75% decrease, mean of 4, heparin) of 25 and a Kd [2] of 2.7 nM.

FTL 5' IRE WT was tested, and the binding signal (% of WT bound) [1] was 100 and the Kd [2] was 0.5 nM.
